Experimental data published in the supplement of paper PMC10266784.

B1: library; numbered along this chain (parent)
chain: MAAAAAAAAEQQSSNGPVKKSMREKAVERRSVNKEHNSNFKAGYIPIDEDRLHKTGLRGRKGNLAICVIILLFILAVINLIITLVIWAVIRIGPNGCDSMEFHESGLLRFKQVSDMGVIHPLYKSTVGGRRNENLVITGNNQPIVFQQGTTKLSVENNKTSITSDIGMQFFDPRTQNILFSTDYETHEFHLPSGVKSLNVQKASTERITSNATSDLNIKVDGRAIVRGNEGVFIMGKTIEFHMGGNMELKAENSIILNGSVMVSTTRLPSSSSGDQLGSGDWVRYKLCMCADGTLFKVQVTSQNMGCQISDNPCGNTH

Variants of: B1
Test: SGCB cell-surface expression functional score (HA stain, bin4 vs bin1, normalised to synonymous) (log10 ratio); higher = more cell-surface SGCB (functional)
Procedure: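 Deep mutational scan of full-length human SGCB (YFP-SGCB-HA, NNN codon sublibraries A-F) delivered by lentivirus at low MOI into ADG-HEK293 cells stably expressing SGCA, SGCD and SGCG. YFP-positive cells were stained for surface HA on unpermeabilized cells and FACS-sorted into bins. The functional score is log10(frequency in high bin 4 / frequency in low bin 1), normalised per chunk so that synonymous variants have mean 0 and SD 0.5. Scores are the median over codons and over duplicate biological replicates; scores below -0.5 are called non-functional. Scale: negative means deleterious.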

SGCB cell-surface expression functional score (log10) of substitutions, site by site:
T83: P -0.3; I 0.05; N 0.2; R -0.49; H -0.43; A -0.17; S -0.2; C -0.51; Y -0.43; M 0.14; G 0.04; L 0.1; W -0.91; F -0.77; D -0.02; E -0.18; Q 0.46; V -0.11; K -0.33
I82: S -0.18; N -0.69; Q 0.28; W -1.15; K 0.1; E -0.49; T -0.05; R -0.66; L 0.07; G -0.2; H 0.12; Y -0.15; F 0.01; P 0.22; M -0.24; D -0.85; V 0.04; A 0.03; C 0.11
W87: V -0.45; S 0.18; Q 0.02; A -0.18; K 0.25; F 0.33; D 0.08; H -0.27; Y 0; N 0.58; P -0.55; T -0.05; C -0.23; I 0.48; E -0.7; M 0.4; L -0.04; G -0.12; R -0.12
I78: K 0.05; E -0.45; A 0.15; W 0.33; Q -0.47; N 0.19; V 0; R -0.54; S -0.22; Y -0.68; T -0.02; H 0.1; D -0.1; C -0.19; M -0.34; P -0.22; L -0.05; F -0.56; G -0.04
L80: Y 0.27; N 0.12; E -0.1; R -0.03; H -0.14; C 0.66; A 0.19; V 0.26; K -0.07; F -0.22; G 0.19; S 0.2; W 1.23; T 0.42; I -0.01; P -0.3; Q -0.24; D -0.2; M 0.32
L84: S 0.09; C -0.21; G 0.24; D -0.05; V 0.24; M 0.1; K 0.18; I 0.01; N -0.44; A 0; P 0.02; R 0.08; F -0.57; E 0.26; T 0.17; Y -0.41; Q 0.78; W 0.4; H -0.4
R91: C -0.72; V -1.43; Y -1.94; S -0.79; D -1.32; E -0.8; P -1.76; W -1.69; N -0.75; L -1.93; G -0.52; T -2.04; M -1.94; F -1.71; K 0.34; A -0.38; Q 0.15; H 0; I -1.85
N79: S -0.15; F -0.85; D -0.24; A 0.21; K -0.4; Y -0.74; C 0.15; L -0.15; E 0.06; P 0; M -0.67; V 0; W -1.05; T -0.23; G 0.06; H -0.33; Q 0.29; I -0.01; R -0.8
V77: M 0.2; N -0.21; F 0.04; T -0.07; K -0.21; R -0.37; Q 0.33; Y -0.22; H -0.48; I -0.12; G -0.14; C -0.11; S -0.06; P -0.24; L -0.16; E -0.04; W -0.2; D 0.07
I90: Y -1.02; F -1.5; E -1.22; Q -0.71; K 0.13; W -0.2; A 0.12; R -0.63; G -0.76; C 0.33; N 0.07; S -0.35; V 0.01; M -0.16; L 0.26; H -1.82; P -1.1; T 0.06; D -0.63
P94: E -0.29; I -0.61; A 0.03; N -0.88; K 0.29; F 0.24; H 0.01; G -0.25; C -0.07; D -1.08; M 0.27; L -0.17
I92: S -2.23; M -0.21; A -1.94; R -1.46; K -1.31; D -2.38; N -1.68; T -1.03; C -1.75; F -0.74; H -1.9; G -0.75; P -1.96; V -0.31; L -0.39; E -2.15; W -2.43; Q -1.97; Y -2.16
V85: D -0.21; R -0.06; W -0.09; Y -0.17; M 0.58; S -0.2; G 0.11; C -0.21; I -0.18; H -0.11; P -1.14; L 0.24; Q 0.08; K 0.01; A 0.3; T -0.05; N -0.37; E 0.35; F -0.43
I86: T -0.15; H -1.91; S -0.98; K -0.65; A -0.08; W -2.19; C -0.24; V 0.32; M -0.18; N -0.75; Q -0.24; F -0.48; P -0.94; D -0.79; R -0.77; Y -0.61; E -0.39; G -0.59; L -0.35
G93: C -1.43; Q -0.8; R -0.4; T 0.23; H 0.32; D -0.19; N -0.14; V -1.79; I -2.15; Y -1.86; W -0.45; P -1.64; S -0.25; M -1.49; F -1.18; A -0.97; K -0.15; E -1.2; L -1.84
A88: R -0.43; V 0.25; T 0.17; H 0.49; I 0.06; P -1.07; W -0.36; Q 0.15; G 0.19; C -0.27; D 0.41; N -0.37; F 0.14; K 0.62; Y 0.01; L 0.14; S 0.49; E -0.1; M -0.05
V89: I -0.52; S -0.41; D -2.32; G -0.36; F -1.21; Y -1.29; K 0.02; L -1.13; N -2.05; H -1.8; R -0.63; E -0.95; C 0; W -1.16; Q -1.44; P -0.88; T -0.3; M -0.96; A -0.23
I81: N 0.04; V -0.03; H 0.45; L 0.1; D 0.12; F -0.08; Q 0.03; R -0.73; W -0.38; P 0.12; C -0.06; Y -0.45; E 0.31; T -0.23; S -0.14; M -0.08; A 0.13; G 0; K -0.06
